# Experimental data as given in patent publication US20240181006A1, “POLYPEPTIDES BINDING ADAMTS5, MMP13 AND AGGRECAN” (Merck Patent GmbH, priority 2017, published 2024).
# What was measured:
# [1] = molecular target: T1, human MMP1 (Homo sapiens, UniProt P03956); assay: FRET-based human MMP1 assay (selectivity of 02F03); type: biochemical; settings: data not shown
# T1 sequence (P03956 100-469): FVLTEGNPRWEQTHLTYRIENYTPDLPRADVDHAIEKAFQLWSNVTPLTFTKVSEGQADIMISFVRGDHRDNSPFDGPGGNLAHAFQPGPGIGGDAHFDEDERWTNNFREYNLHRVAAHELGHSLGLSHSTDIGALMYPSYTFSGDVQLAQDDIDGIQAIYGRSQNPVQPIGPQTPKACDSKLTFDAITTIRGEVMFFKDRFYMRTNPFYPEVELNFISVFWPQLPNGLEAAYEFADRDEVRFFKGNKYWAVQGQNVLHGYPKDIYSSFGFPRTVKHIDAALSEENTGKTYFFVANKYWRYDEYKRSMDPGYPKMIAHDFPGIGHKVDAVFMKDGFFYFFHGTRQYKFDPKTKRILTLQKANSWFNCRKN
# Protocol: (§1) To confirm the selectivity of ISVD 02F03 for ADAMTS5, inhibition of the enzymatic activity of MMP1, MMP14 and ADAMTS4 was evaluated via FRET-based assays and a human ADAMTS4 AlphaLISA, with the respective enzymes.
# (§2) Activated human MMP1 or MMP14 was incubated for 30 minutes at room temperature with 10 μl of dilution series of ISVD 02F03. After incubation, 20 μl of respectively 5 μM or 2.5 μM fluorogenic peptide substrate (Mca-PLGL-Dpa-AR-NH2 Fluorogenic MMP Substrate (R&D Systems cat #ES001)) was added. The ability of ISVD 02F03 to prevent MMP1- and MMP14-mediated cleavage was monitored every minute for 2 hours at 37° C. on a Tecan Infinite M1000 plate reader.
# [2] = molecular target: T2, human MMP14 (Homo sapiens, UniProt P50281); assay: FRET-based human MMP14 assay (selectivity of 02F03); type: biochemical; settings: data not shown
# Protocol: as §1, §2
# [3] = test system: Rat G1-IGD-G2; assay: periplasmic extract ELISA, rat Aggrecan G1-IGD-G2; type: binding
# Chain of Rat G1-IGD-G2 (P07897 20-684 limits assumed): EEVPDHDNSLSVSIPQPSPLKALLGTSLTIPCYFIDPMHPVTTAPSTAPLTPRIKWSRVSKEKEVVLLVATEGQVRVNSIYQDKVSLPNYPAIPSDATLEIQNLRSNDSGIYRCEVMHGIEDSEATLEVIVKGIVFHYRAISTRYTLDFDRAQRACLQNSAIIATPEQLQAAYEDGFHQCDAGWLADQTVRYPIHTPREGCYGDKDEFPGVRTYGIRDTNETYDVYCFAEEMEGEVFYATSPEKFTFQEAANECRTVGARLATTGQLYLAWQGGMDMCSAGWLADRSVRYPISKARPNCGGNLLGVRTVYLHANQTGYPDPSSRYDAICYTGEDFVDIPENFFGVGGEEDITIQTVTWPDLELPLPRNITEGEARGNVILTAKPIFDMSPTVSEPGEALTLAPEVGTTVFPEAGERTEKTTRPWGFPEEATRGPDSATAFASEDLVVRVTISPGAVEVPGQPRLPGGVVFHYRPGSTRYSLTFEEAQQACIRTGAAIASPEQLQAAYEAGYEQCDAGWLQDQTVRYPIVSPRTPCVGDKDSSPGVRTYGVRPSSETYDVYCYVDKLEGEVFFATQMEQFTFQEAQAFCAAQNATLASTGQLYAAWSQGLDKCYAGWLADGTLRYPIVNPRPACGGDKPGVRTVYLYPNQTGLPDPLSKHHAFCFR
# Description: (§3) After the primary screening, initial assessment of binding via ELISA, determination of off-rate and species cross-reactivity, ISVD 114F08 was subjected to further characterization.
# [4] = test system: Cy G1-IGD-G2; assay: periplasmic extract ELISA, cynomolgus Aggrecan G1-IGD-G2; type: binding
# Description: as §3
# [5] = molecular target: T3, Dog G1-IGD-G2 (Canis lupus familiaris, UniProt Q28343); assay: periplasmic extract ELISA, dog Aggrecan G1-IGD-G2; type: binding
# T3 construct: Dog G1-IGD-G2
# T3 sequence (Q28343 20-693): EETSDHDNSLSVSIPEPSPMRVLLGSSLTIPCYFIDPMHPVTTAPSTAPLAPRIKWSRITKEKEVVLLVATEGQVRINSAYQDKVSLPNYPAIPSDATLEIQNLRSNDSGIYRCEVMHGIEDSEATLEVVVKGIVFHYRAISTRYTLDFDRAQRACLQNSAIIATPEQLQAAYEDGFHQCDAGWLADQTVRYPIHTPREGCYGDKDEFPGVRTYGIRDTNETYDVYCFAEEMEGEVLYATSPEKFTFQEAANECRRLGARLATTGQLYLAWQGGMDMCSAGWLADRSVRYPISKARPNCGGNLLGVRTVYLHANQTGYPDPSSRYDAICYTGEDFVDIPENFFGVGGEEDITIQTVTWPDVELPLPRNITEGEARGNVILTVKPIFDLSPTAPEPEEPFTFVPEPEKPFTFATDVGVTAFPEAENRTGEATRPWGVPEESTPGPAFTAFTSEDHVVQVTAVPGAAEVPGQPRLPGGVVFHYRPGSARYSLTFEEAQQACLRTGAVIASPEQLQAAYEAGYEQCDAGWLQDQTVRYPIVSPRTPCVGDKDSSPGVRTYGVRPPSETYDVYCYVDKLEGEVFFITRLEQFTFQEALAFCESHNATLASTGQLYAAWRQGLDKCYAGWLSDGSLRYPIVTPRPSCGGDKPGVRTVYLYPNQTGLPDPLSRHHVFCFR
# Description: as §3
# [6] = molecular target: T4, Hu G1-IGD-G2 (Homo sapiens, UniProt P16112); assay: periplasmic extract ELISA, human Aggrecan G1-IGD-G2; type: binding
# T4 construct: Hu G1-IGD-G2
# T4 sequence (P16112 20-676 limits assumed): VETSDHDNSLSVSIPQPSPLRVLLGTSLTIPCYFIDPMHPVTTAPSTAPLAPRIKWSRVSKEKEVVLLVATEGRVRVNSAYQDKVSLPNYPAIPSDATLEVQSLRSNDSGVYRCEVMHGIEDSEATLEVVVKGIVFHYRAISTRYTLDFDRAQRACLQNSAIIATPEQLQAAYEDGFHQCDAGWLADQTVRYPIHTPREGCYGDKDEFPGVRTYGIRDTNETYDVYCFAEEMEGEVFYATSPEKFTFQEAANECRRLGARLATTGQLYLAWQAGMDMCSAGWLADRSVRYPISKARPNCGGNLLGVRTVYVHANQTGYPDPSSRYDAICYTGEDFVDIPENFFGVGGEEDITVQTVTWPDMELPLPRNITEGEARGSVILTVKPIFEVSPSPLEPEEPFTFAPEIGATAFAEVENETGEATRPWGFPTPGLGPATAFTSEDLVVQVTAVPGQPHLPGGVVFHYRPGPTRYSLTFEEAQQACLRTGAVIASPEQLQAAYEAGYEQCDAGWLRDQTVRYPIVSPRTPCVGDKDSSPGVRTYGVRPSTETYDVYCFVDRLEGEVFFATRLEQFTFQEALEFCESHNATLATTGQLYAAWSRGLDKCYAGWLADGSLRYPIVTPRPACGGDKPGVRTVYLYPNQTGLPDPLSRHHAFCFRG
# Description: as §3
# [7] = molecular target: T5, Bov G1-IGD-G2 (Bos taurus, UniProt P13608); assay: periplasmic extract ELISA, bovine Aggrecan G1-IGD-G2; type: binding
# T5 construct: the recombinant G1-IGD-G2 region from human, cynomolgus, rat, dog and bovine Aggrecan
# T5 sequence (P13608 20-685 limits assumed): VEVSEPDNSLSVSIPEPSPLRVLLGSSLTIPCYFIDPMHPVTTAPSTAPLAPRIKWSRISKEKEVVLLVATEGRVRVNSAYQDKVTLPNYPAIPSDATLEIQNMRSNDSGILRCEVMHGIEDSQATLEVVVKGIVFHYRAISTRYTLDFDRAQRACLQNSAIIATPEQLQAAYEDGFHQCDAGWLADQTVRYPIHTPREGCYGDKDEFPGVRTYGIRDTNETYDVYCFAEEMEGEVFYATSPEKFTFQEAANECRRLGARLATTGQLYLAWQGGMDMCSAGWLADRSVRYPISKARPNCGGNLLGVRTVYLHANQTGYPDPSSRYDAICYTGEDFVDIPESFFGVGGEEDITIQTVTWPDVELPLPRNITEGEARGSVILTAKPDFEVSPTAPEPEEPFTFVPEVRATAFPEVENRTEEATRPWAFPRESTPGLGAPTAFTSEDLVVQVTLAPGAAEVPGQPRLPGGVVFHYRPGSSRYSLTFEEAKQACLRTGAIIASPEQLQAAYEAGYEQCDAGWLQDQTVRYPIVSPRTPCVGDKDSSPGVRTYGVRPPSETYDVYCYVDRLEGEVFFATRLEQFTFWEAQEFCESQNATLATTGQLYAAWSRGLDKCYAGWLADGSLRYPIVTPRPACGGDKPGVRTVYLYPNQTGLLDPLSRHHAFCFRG
# Description: as §3
# [8] = molecular target: T2, human MMP14; assay: human MMP14 fluorogenic peptide assay (selectivity of 62C02); type: biochemical; settings: data not shown
# Protocol: (§4) In brief, the setup of human, cynomolgus, rat, dog and bovine MMP13 fluorogenic peptide assays, as well as human MMP1 and MMP14 fluorogenic peptide assays is as follows. Activated MMP was incubated with fluorogenic peptide substrate Mca-PLGL-Dpa-AR-NH2 (R&D Systems #ES001) and a ⅕ dilution of periplasmic extract or a dilution series of purified Nanobody/positive control (total volume=20 μl in assay buffer 50 mM Tris pH 7.5, 100 mM NaCl, 10 mM CaCl2), 0.01% Tween20), for 2 h at 37° C. The linear increase of fluorescence (v0-between 15 and 45 min incubation) was used as a measure for the enzymatic activity and % inhibition was calculated with the formula 100-100 (v0 in the presence of test Nanobody/v0 in the presence of negative control Nanobody (Cablys)).
# (§5) In order to determine the selectivity of ISVD 62C02 for MMP13, fluorogenic peptide assays for MMP1 and MMPP14 were used. MMP1 and MMP14 are two closely related MMP family members. TIMP-2 was used as positive control in these assays. A similar set up as described in Example 1.1 was used.
# [9] = molecular target: T1, human MMP1; assay: human MMP1 fluorogenic peptide assay (selectivity of 62C02); type: biochemical; settings: data not shown
# Protocol: as §4, §5
molecule,measurement,setting,value
TIMP3: natural inhibitor of MMP1 and MMP14 (protein) CTCSPSHPQDAFCNSDIVIRAKVVGKKLVKEGPFGTLVYTIKQMKMYRGFTKMPHVQYIHTEASESLCGLKLEVNKYQYLLTGRVYDGKMYTGLCNFVERWDQLTLSQRKGLNYRYHLGCNCKIKSCYYLPCFVTSKNECLWTDMLSNFGYPGYQSKHYACIRQKGGYCSWYRGWAPPDKSIINATDP,inhibition of MMP1 activity,[1],inhibited
same,inhibition of MMP14 activity,[2],inhibited
"ISVD 114F08: Aggrecan-specific immunoglobulin single variable domain (CAP), binds G1 domain (protein, Description of Artificial Sequence: Synthetic anti-Aggrecan immunoglobulin single variable domain (ISVD)) VHH: EVQLVESGGGVVQPGGSLRLSCAASGSTFIINVVRWYRRAPGKQRELVATISSGGNANYVDSVRGRFTISRDNSKNTVYLQMNSLRPEDTALYYCNVPTTHYGGVYYGPYWGQGTLVTVSS","Periplasmic extract ELISA OD 450 nm, Rat G1-IGD-G2",[3],2.05
same,"Periplasmic extract ELISA OD 450 nm, Cy G1-IGD-G2",[4],2.32
same,"Periplasmic extract ELISA OD 450 nm, Dog G1-IGD-G2",[5],1.90
same,"Periplasmic extract ELISA OD 450 nm, Hu G1-IGD-G2",[6],2.38
same,"Periplasmic extract ELISA OD 450 nm, Bov G1-IGD-G2",[7],1.18
"ISVD 62C02: MMP13 specific immunoglobulin single variable domain (protein, Description of Artificial Sequence: Synthetic anti-MMP13 immunoglobulin single variable domain (ISVD)) VHH: EVQLVESGGGVVQPGGSLRLSCAASGFAFSAAYMSWVRQAPGKGLEWVSSISDDGSKTYYADSVKGRFTISRDNSKNTVYLQMNSLRPEDTALYYCNTGYGATTTRPGRYWGQGTLVTVSS",MMP14 inhibition,[8],no MMP1 or MMP14 inhibition
same,MMP1 inhibition,[9],no MMP1 or MMP14 inhibition
